Here are results for four molecules from patent US20260209750, “SYSTEM AND METHOD FOR […] RNA APTAMER” (CRISmers Biotechnologies (Shenzhen) Co., Ltd., published 2026).

In series [1] the target is NSP7-8 complex (SARS-CoV-2, UniProt P0DTD1;P0DTD1 P0DTD1:3860-3942,P0DTD1:3943-4140). Briefly: ELONA. Conditions: label: biotin.
The target of series [2] is PD-1 extracellular domain, recombinant (UniProt Q15116 Q15116:25-170). Briefly: ELONA.
The target in series [3] is T1, SARS-CoV-2 spike RBD (wild type), recombinant (SARS-CoV-2, UniProt P0DTC2 P0DTC2:319-541). Briefly: EMSA.
For series [4], the target named is T1, SARS-CoV-2 spike RBD (wild type), …. Briefly: ELONA.

One may read the Kd as the equilibrium constant for the complex coming apart.

Chain of PD-1 extracellular domain, recombinant (Q15116 25-170, one chain of several): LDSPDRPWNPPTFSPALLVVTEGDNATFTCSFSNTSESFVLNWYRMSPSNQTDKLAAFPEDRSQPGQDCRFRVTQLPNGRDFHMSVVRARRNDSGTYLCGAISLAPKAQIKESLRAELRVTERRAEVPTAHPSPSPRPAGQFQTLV

B1: #2-1-18 full (ssRNA)
RNA: ACUUGGCCACGUCGACUGAAAUCCUCUUCCUGCAGGGCCAAGUG
As for B1, the binding result in series [1] and in series [2] was “no binding” each time.

B2: #2-1-18-2'-F-O (ssRNA)
RNA: ACUUGGCCACGUCGACUGAAAUCCUCUUCCUGCAGGGCCAAGUG
modifications: 2'-F on pyrimidines, 2'-OMe on purines
For B2, the binding result in series [3] is “binds”.

B3: #5-2-15 full (ssRNA)
RNA: ACUUGGCCAAUUACCGUAGUUUUUGUAGUCUGCAGGGCCAAGUG
For B3, the binding result in series [1] and in series [2] was “no binding” in each case. Besides, in series [4], the Kd worked out at 22.6 nM.

B4: #5-2-15-2'-F-O (ssRNA)
RNA: ACUUGGCCAAUUACCGUAGUUUUUGUAGUCUGCAGGGCCAAGUG
modifications: 2'-F on pyrimidines, 2'-OMe on purines
B4: in series [3], the binding result is “binds”.
